8 molecules from publication PMC10854676, “The Impact of Lens Epithelium-Derived Growth Factor p75 Dimerization on Its Tethering Function” (Cells, 2024) can be followed below.

B1: MBP-LEDGF_(325–426) (domain or fragment, UniProt O75475 325-426, looked up)
chain: EQQNKDEGKKPEVKKVEKKRETSMDSRLQRIHAEIKNSLKIDNLDVNRCIEALDELASLQVTMQQAQKHTEMITTLKKIRRFKVSQVIMEKSTMLYNKFKNM
notes: source: E. coli BL21(DE3)pLysS, purified (amylose resin); not shown: MBP, N-terminal, kept
B2: His6-LEDGF_(1–426) (domain or fragment)
chain: not shown
notes: LEDGF/p75 residues 1-426 (lacks the C-term with the α6-helix); elsewhere LEDGF1-426 is Flag-tagged; source: E. coli BL21(DE3)pLysS, purified (Ni-NTA, heparin); not shown: His6, N-terminal, kept
B3: Flag-LEDGF/p75 E451R-E452R (natural protein)
chain: not shown
notes: LEDGF/p75 with two reverse-charge mutations in the α6-helix; source: E. coli BL21(DE3)pLysS, purified (heparin column, Superdex 75); not shown: Flag, N-terminal, kept
B4: MLL1_(1–160)-GST (domain or fragment, UniProt Q03164 1-160, looked up)
chain: MAHSCRWRFPARPGTTGGGGGGGRRGLGGAPRQRVPALLLPPGPPVGGGGPGAPPSPPAVAAAAAAAGSSGAGVPGGAAAASAASSSSASSSSSSSSSASSGPALLRVGPGFDAALQVSAAIGTNLRRFRAVFGESGGGGGSGEDEQFLGFGSDEEVRVR
notes: MLL1 residues 1-160; also called MLL1_(1–160) fragment; not shown: GST, C-terminal, kept
B5: His6-LEDGF_(345–530) (domain or fragment, UniProt O75475 345-530, looked up)
chain: ETSMDSRLQRIHAEIKNSLKIDNLDVNRCIEALDELASLQVTMQQAQKHTEMITTLKKIRRFKVSQVIMEKSTMLYNKFKNMFLVGEGDSVITQVLNKSLAEQRQHEEANKTKDQGKKGPNKKLEKEQTGSKTLNGGSDAQDGNQPQHNGESNEDSKDNHEASTKKKPSSEERETEISLKDSTLDN
notes: the plasmid has a TEV site after the His tag, a cleavage is not reported; source: E. coli BL21(DE3)pLysS, purified (Ni-NTA, heparin); not shown: His6, N-terminal, kept
B6: His6-LEDGF_(345–530) E451A (domain or fragment, UniProt O75475 345-530, looked up)
chain: B5 chain with E107A
notes: source: E. coli BL21(DE3)pLysS, purified (Ni-NTA, heparin); not shown: His6, N-terminal, kept
B7: His6-LEDGF_(345–530) N454A-K455A (domain or fragment, UniProt O75475 345-530, looked up)
chain: B5 chain with N110A, K111A
notes: as for B6
B8: His6-LEDGF/p52 (natural protein)
chain: not shown
notes: lacks the IBD and C-term; also called His6-tagged LEDGF/p52; source: E. coli BL21(DE3)pLysS, purified (Ni-NTA, heparin); not shown: His6, N-terminal, kept

Holding throughout (conditions): both partners purified
The target of the test “His6-LEDGF_(345–530)” is B5. The test can be described thus: AlphaScreen or HTRF; direct titration or cross-titration of two differently tagged proteins at nanomolar concentrations (one partner fixed at 100-350 nM); no nuclease; protein batches held DNA at 2 µg/mL or lower.
The target of test [1] is T1, Flag-LEDGF/p75 WT (UniProt O75475 1-530).
T1 construct: LEDGF/p75, aa 1-530, from the pCp-NAT-3xFlag-LEDGF WT construct; also called Flag-tagged LEDGF/p75; Flag-LEDGF_(1–530); source: E. coli BL21(DE3)pLysS, purified (heparin column, Superdex 75); not shown: 3xFlag, N-terminal, kept
The test can be described thus: AlphaScreen or HTRF; competition: 150 nM GST-LEDGF/p75 and 150 nM Flag-LEDGF/p75 outcompeted by increasing concentrations of a third LEDGF construct; apparent IC50. A general note: In Alpha technology, singlet oxygen from a donor bead excites a nearby acceptor bead.

The target in the next test is T2, GST-LEDGF/p75 (UniProt O75475 1-530).
T2 construct: LEDGF/p75 (lens epithelium-derived growth factor p75), aa 1-530, expressed from pGEX-p75; also called GST-tagged LEDGF/p75; full-length GST-tagged LEDGF/p75; source: E. coli BL21(DE3)pLysS, purified as described before [24]; not shown: GST, N-terminal, kept
The test can be described thus: AlphaScreen or HTRF; direct titration or cross-titration of two differently tagged proteins at nanomolar concentrations (one partner fixed at 100-350 nM); no nuclease; protein batches held DNA at 2 µg/mL or lower.

Test [2] concerns the target T1, Flag-LEDGF/p75 WT. The test is described as above.
The target in test [3] is B3. Described as above.
In another test the target is T3, Flag-LEDGF_(1–426) (UniProt O75475 1-426).
T3 construct: LEDGF/p75 residues 1-426, truncation missing the complete C-term including the α6-helix; source: E. coli BL21(DE3)pLysS, purified (heparin column, Superdex 75); not shown: Flag, N-terminal, kept
Described as above.

Where a chain is given by its changes, count along the chain named. Numbers in names are those of the source.

Turning to B1, the binding result with His6-LEDGF_(345–530) was “binds”. Regarding B2, the IC50 (in general, the concentration that gives 50% inhibition) in the test with Flag-LEDGF/p75 WT [1] was 65.5 nM.

B3: the binding result with GST-LEDGF/p75 was “binds”.

For the molecule B4, the binding result (with Flag-LEDGF/p75 WT [2]; in test [3]; with Flag-LEDGF_(1–426)) was “binds” in each case.

On to B5, for which the IC50 with Flag-LEDGF/p75 WT [1] stood at 222 nM. Also, in the test with Flag-LEDGF_(1–426), the “fold stronger binding than the mutants E451A and N454A-K455A” value is about 2 fold. With B6, the binding result in the test with Flag-LEDGF/p75 WT [2] and with Flag-LEDGF_(1–426) was “binds” throughout. Regarding B7, the binding result with Flag-LEDGF/p75 WT [2] and with Flag-LEDGF_(1–426) was “binds” throughout.

B8: the IC50 with Flag-LEDGF/p75 WT [1] was 12.2 nM.
